Data on three molecules can be found in US20140087995A1 (published 2014).

Numbered stars: 1 amine (or outer) side, 2 acyl side, 3 side chain; on linkers, the order of the positions; unused ones are H or OH. Bridge positions count the residues as written; N and C are the ends. Side chains are listed from the residue outwards. Ends that are not written are not given here. * marks the point of attachment. C20 diacid = O=C(O)CCCCCCCCCCCCCCCCCCC(=O)*; γGlu = O=C(O)[C@H](CCC(=O)[*:2])N[*:1]

T1: rat calcitonin receptor (rat, UniProt P32214 25-516)
T1 construct: whole, on cells; In cell membranes prepared from transiently transfected BHK tk'ts 13 cells (Assay VIII); also called rCTR; rat calcitonin (a) receptor
T1 sequence (looked up): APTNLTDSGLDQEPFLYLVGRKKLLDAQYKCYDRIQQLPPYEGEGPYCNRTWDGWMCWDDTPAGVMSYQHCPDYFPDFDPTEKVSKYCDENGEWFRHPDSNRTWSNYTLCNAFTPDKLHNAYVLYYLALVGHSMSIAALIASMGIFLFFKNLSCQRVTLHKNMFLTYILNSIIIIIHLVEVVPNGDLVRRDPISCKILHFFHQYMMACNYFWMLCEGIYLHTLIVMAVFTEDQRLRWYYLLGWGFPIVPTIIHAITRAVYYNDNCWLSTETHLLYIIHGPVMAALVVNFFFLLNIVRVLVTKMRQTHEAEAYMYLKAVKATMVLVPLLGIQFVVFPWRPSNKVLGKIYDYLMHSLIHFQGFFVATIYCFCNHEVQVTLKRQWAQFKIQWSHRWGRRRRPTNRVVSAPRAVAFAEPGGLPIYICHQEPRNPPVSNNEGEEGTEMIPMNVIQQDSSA

T2: human calcitonin receptor (human, UniProt P30988 25-474)
T2 construct: whole, on cells; Cell membranes from the stably transfected cell line (Assay VII); also called hCTR; hCT
T2 sequence (looked up): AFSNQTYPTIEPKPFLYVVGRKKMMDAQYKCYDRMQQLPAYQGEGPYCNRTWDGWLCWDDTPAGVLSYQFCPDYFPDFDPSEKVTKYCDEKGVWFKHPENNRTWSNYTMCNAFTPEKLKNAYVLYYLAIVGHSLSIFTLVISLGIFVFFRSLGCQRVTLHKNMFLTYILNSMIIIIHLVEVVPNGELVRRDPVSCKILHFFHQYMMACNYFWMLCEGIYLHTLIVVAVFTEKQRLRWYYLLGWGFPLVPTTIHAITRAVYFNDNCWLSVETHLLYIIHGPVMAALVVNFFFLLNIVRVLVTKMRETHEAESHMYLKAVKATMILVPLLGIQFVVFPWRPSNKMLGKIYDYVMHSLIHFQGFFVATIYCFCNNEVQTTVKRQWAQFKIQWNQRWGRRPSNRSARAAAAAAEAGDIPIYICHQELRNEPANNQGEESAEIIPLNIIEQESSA

T3: rat amylin receptor (rat calcitonin receptor + rat RAMP 3) (rat, UniProt P32214 25-516; Q9JJ73 23-147)
T3 construct: whole, on cells; Receptor complex in cell membranes prepared from transiently transfected BHK tk'ts 13 cells (Assay VI); also called rAmylin-R; rat amylin 3(a) receptor
T3 sequence (looked up) 1: T1 sequence (looked up)
T3 sequence (looked up) 2: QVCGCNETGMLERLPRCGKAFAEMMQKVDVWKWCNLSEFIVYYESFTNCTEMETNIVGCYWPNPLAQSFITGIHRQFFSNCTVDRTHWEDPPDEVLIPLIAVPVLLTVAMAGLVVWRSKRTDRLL

B1: N^ε1-[(4S)-4-carboxy-4-(19-carboxynonadecanoylamino)butanoyl]-[Glu14,Arg17,Pro21,Pro27,His35]-h-amylin (peptide)
peptide: K([γGlu-C20 diacid])CNTATCATQRLAEFLRHSSPNFGAIPSSTNVGSHTY-NH2
modifications: disulfide 2-7; N-terminus assumed
SMILES: CC[C@H](C)[C@H](NC(=O)[C@H](C)NC(=O)CNC(=O)[C@H](Cc1ccccc1)NC(=O)[C@H](CC(N)=O)NC(=O)[C@@H]1CCCN1C(=O)[C@H](CO)NC(=O)[C@H](CO)NC(=O)[C@H](Cc1c[nH]cn1)NC(=O)[C@H](CCCNC(=N)N)NC(=O)[C@H](CC(C)C)NC(=O)[C@H](Cc1ccccc1)NC(=O)[C@H](CCC(=O)O)NC(=O)[C@H](C)NC(=O)[C@H](CC(C)C)NC(=O)[C@H](CCCNC(=N)N)NC(=O)[C@H](CCC(N)=O)NC(=O)[C@@H](NC(=O)[C@H](C)NC(=O)[C@@H]1CSSC[C@H](NC(=O)[C@@H](N)CCCCNC(=O)CC[C@H](NC(=O)CCCCCCCCCCCCCCCCCCC(=O)O)C(=O)O)C(=O)N[C@@H](CC(N)=O)C(=O)N[C@@H]([C@@H](C)O)C(=O)N[C@@H](C)C(=O)N[C@@H]([C@@H](C)O)C(=O)N1)[C@@H](C)O)C(=O)N1CCC[C@H]1C(=O)N[C@@H](CO)C(=O)N[C@@H](CO)C(=O)N[C@H](C(=O)N[C@@H](CC(N)=O)C(=O)N[C@H](C(=O)NCC(=O)N[C@@H](CO)C(=O)N[C@@H](Cc1c[nH]cn1)C(=O)N[C@H](C(=O)N[C@@H](Cc1ccc(O)cc1)C(N)=O)[C@@H](C)O)C(C)C)[C@@H](C)O
B2: N^ε1-[(4S)-4-carboxy-4-[[(4S)-4-carboxy-4-(19-carboxynonadecanoylamino)butanoyl]amino]butanoyl]-[Glu14,Arg17,Pro21,Pro27,Pro34,His35]-h-amylin (peptide)
peptide: K([γGlu-γGlu-C20 diacid])CNTATCATQRLAEFLRHSSPNFGAIPSSTNVGPHTY-NH2
modifications: disulfide 2-7; N-terminus assumed
SMILES: CC[C@H](C)[C@H](NC(=O)[C@H](C)NC(=O)CNC(=O)[C@H](Cc1ccccc1)NC(=O)[C@H](CC(N)=O)NC(=O)[C@@H]1CCCN1C(=O)[C@H](CO)NC(=O)[C@H](CO)NC(=O)[C@H](Cc1c[nH]cn1)NC(=O)[C@H](CCCNC(=N)N)NC(=O)[C@H](CC(C)C)NC(=O)[C@H](Cc1ccccc1)NC(=O)[C@H](CCC(=O)O)NC(=O)[C@H](C)NC(=O)[C@H](CC(C)C)NC(=O)[C@H](CCCNC(=N)N)NC(=O)[C@H](CCC(N)=O)NC(=O)[C@@H](NC(=O)[C@H](C)NC(=O)[C@@H]1CSSC[C@H](NC(=O)[C@@H](N)CCCCNC(=O)CC[C@H](NC(=O)CC[C@H](NC(=O)CCCCCCCCCCCCCCCCCCC(=O)O)C(=O)O)C(=O)O)C(=O)N[C@@H](CC(N)=O)C(=O)N[C@@H]([C@@H](C)O)C(=O)N[C@@H](C)C(=O)N[C@@H]([C@@H](C)O)C(=O)N1)[C@@H](C)O)C(=O)N1CCC[C@H]1C(=O)N[C@@H](CO)C(=O)N[C@@H](CO)C(=O)N[C@H](C(=O)N[C@@H](CC(N)=O)C(=O)N[C@H](C(=O)NCC(=O)N1CCC[C@H]1C(=O)N[C@@H](Cc1c[nH]cn1)C(=O)N[C@H](C(=O)N[C@@H](Cc1ccc(O)cc1)C(N)=O)[C@@H](C)O)C(C)C)[C@@H](C)O
B3: N^ε1-[(4S)-4-carboxy-4-[[(4S)-4-carboxy-4-(19-carboxynonadecanoylamino)butanoyl]amino]butanoyl]-[Glu14,Arg17,Pro21,Pro27,Pro34,Glu35,Pro37]-h-amylin (peptide)
peptide: K([γGlu-γGlu-C20 diacid])CNTATCATQRLAEFLRHSSPNFGAIPSSTNVGPETP-NH2
modifications: disulfide 2-7; N-terminus assumed
SMILES: CC[C@H](C)[C@H](NC(=O)[C@H](C)NC(=O)CNC(=O)[C@H](Cc1ccccc1)NC(=O)[C@H](CC(N)=O)NC(=O)[C@@H]1CCCN1C(=O)[C@H](CO)NC(=O)[C@H](CO)NC(=O)[C@H](Cc1c[nH]cn1)NC(=O)[C@H](CCCNC(=N)N)NC(=O)[C@H](CC(C)C)NC(=O)[C@H](Cc1ccccc1)NC(=O)[C@H](CCC(=O)O)NC(=O)[C@H](C)NC(=O)[C@H](CC(C)C)NC(=O)[C@H](CCCNC(=N)N)NC(=O)[C@H](CCC(N)=O)NC(=O)[C@@H](NC(=O)[C@H](C)NC(=O)[C@@H]1CSSC[C@H](NC(=O)[C@@H](N)CCCCNC(=O)CC[C@H](NC(=O)CC[C@H](NC(=O)CCCCCCCCCCCCCCCCCCC(=O)O)C(=O)O)C(=O)O)C(=O)N[C@@H](CC(N)=O)C(=O)N[C@@H]([C@@H](C)O)C(=O)N[C@@H](C)C(=O)N[C@@H]([C@@H](C)O)C(=O)N1)[C@@H](C)O)C(=O)N1CCC[C@H]1C(=O)N[C@@H](CO)C(=O)N[C@@H](CO)C(=O)N[C@H](C(=O)N[C@@H](CC(N)=O)C(=O)N[C@H](C(=O)NCC(=O)N1CCC[C@H]1C(=O)N[C@@H](CCC(=O)O)C(=O)N[C@H](C(=O)N1CCC[C@H]1C(N)=O)[C@@H](C)O)C(C)C)[C@@H](C)O

The first assay deals with T1, rat calcitonin receptor. Nature of the assay: SPA competition binding, displacement of 125I-Calcitonin from membranes of BHK tk'ts 13 cells with rat calcitonin receptor (Assay VIII). Background: Loss of bound radioactivity is the signal in a displacement assay; it reports binding, not function.
In the case of B1, the IC50 (in general, the concentration at which inhibition is half-maximal) was 26.3 nM.
For B2, the IC50 was determined as 21 nM.
Same read-out and setting: for B3 the value was 1.61 nM.

In a further assay the target is T2, human calcitonin receptor. In words: ratio of binding IC50s: human calcitonin receptor (Assay VII) over human amylin receptor (Assay V). On the procedure:
The resulting pellet was resuspended, homogenized and centrifuged (20.000 rpm, 15 min) in a buffer containing 20 mM Na-HEPES and 0.1 mM EDTA (pH 7.4, buffer 2). The resulting pellet was resuspended in buffer 2 and protein concentration was measured (BCA protein Assay, Pierce). The homogenate was kept cold during the whole procedure. The membranes were kept at −80° C. until use. The assay was performed in a 384 well Optiplate (PerkinElmer) in a total volume of 40 ul. Membranes were mixed with SPA beads. Final concentration of membranes 35 ng/μL final and SPA beads was 0.05 mg/well. Test-compounds were dissolved in DMSO and further diluted in assay buffer (50 mM Hepes, pH 7.4, 1 mM CaCl2, 5 mM MgCl₂, 0.1% OA and 0.02% Tween20). […] The final mixture was incubated with shaking at 400 rpm for 120 min at 25° C. prior to centrifugation (1500 rpm, 10 min). Samples were analyzed on TopCounter™ (Packard). The IC₅₀ was calculated using (one site binding competition analysis) GraphPad Prism5 as a measure of receptor affinity.
Membranes were prepared in the following way; the cells were rinsed with PBS and incubated with Versene for approximately 5 min before harvesting. The cells were flushed with PBS and the cell-suspension was centrifuged for 5 min at 1000 rpm. Cells were homogenized (Ultrathurrax) in a buffer containing 20 mM Na-HEPES and 10 mM EDTA (pH 7.4) and centrifuged at 20.000 rpm for 15 min. The resulting pellet was resuspended, homogenized and centrifuged (20.000 rpm, 15 min) in a buffer containing 20 mM Na-HEPES and 0.1 mM EDTA (pH 7.4, buffer 2). The resulting pellet was resuspended in buffer 2 and protein concentration was measured (BCA protein Assay, Pierce). The homogenate was kept cold during the whole procedure. The membranes were kept at −80° C. until use. Assay was performed in a 384 well Optiplate (PerkinElmer) in a total volume of 40 ul. Membranes were mixed with SPA beads.
As for B1, the “Ratio hCT/hAmylin binding” value is 26.4.
Still for that read-out and setting: for B2 the value was 27.3; for B3, 0.4.

A further assay deals with T1, rat calcitonin receptor. Nature of the assay: ratio of binding IC50s: rat calcitonin receptor (Assay VIII) over rat amylin receptor (Assay VI).
Take B1: the “Ratio rCT/rAmylin binding” value is 22.7.
Same read-out and setting: for B2 the value was 73; for B3, 10.6.

A further assay concerns the target T3, rat amylin receptor (rat calcitonin …). Nature of the assay: SPA competition binding, displacement of 125I-rat amylin from membranes of BHK tk'ts 13 cells with rat calcitonin receptor + rat RAMP 3 (Assay VI). The method, then: The binding assay was performed using scintillation proximity assay (SPA) beads (RPNQ0001) from PerkinElmer and cell membranes from the Amylin 3(a)/CRE-luc cells (as described in Assay (II)) were used. Membranes were prepared in the following way; the cells were rinsed with PBS and incubated with Versene for approximately 5 min before harvesting. The cells were flushed with PBS and the cell-suspension was centrifuged for 5 min at 1000 rpm. Cells were homogenized (ultrathurrax) in a buffer containing 20 mM Na-HEPES and 10 mM EDTA (pH 7.4) and centrifuged at 20.000 rpm for 15 min. The resulting pellet was resuspended, homogenized and centrifuged (20.000 rpm, 15 min) in a buffer containing 20 mM Na-HEPES and 0.1 mM EDTA (pH 7.4, buffer 2). The resulting pellet was resuspended in buffer 2 and protein concentration was measured (BCA protein Assay, Pierce). The homogenate was kept cold during the whole procedure. The membranes were kept at −80° C. until use. The assay was performed in a 384 well Optiplate (PerkinElmer) in a total volume of 40 ul. Membranes were mixed with SPA beads. Final concentration of membranes 35 ng/μL final and SPA beads was 0.05 mg/well. Test-compounds were dissolved in DMSO and further diluted in assay buffer (50 mM Hepes, pH 7.4, 1 mM CaCl2, 5 mM MgCl₂, 0.1% OA and 0.02% Tween20). […] The final mixture was incubated with shaking at 400 rpm for 120 min at 25° C. prior to centrifugation (1500 rpm, 10 min). Samples were analyzed on TopCounter™ (Packard). The IC₅₀ was calculated using (one site binding competition analysis) GraphPad Prism5 as a measure of receptor affinity.
Cells were grown in DMEM with 10% FBS and 1% Pen/Strep. Approximately 48 hours after transfection, the cells were harvested and membranes were prepared.
As for B1, the IC50 stood at 1.16 nM.
The same measure, in the same setting: for B2 the value was 0.288 nM.
The same measure, in the same setting: for B3 the value was 0.152 nM.
